The numbers were not newly measured in publication PMC2880562, which cites them from elsewhere.

The data set deals with Arginine repressor ArgR (trimer) (Escherichia coli) (UniProt P0A6D0). The data set is described as follows: analytical ultracentrifugation.

As for “Arginine repressor ArgR (trimer) (from UniProt P0A6D0)”, the Kd (commonly the constant that tells how readily two partners part at equilibrium) is under 2.5 nM.
